Data taken from US20240269307A1 (JIANGSU HENGRUI PHARMACEUTICALS, published 2024).

Columns and labels:
[1] = molecular target: T1, human Nectin-4 expressed on cells (Nectin4-CHOK1, T47D, MDA-MB-468) (human, UniProt Q96NY8 32-510); experiment: cell-based or functional assay
T1 sequence: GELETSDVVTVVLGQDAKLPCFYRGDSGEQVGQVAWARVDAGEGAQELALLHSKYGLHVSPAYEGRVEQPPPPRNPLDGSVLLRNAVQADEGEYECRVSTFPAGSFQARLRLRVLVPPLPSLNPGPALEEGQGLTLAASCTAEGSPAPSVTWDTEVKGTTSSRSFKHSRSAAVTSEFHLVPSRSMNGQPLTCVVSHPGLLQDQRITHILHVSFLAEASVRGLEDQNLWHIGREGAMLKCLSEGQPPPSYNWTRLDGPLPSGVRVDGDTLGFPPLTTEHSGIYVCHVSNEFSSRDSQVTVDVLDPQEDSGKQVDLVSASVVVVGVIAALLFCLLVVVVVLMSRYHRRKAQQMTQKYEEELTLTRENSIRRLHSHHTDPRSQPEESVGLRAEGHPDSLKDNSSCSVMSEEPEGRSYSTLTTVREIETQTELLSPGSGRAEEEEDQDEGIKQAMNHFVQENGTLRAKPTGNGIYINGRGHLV

[2] = molecular target: T1, human Nectin-4 expressed on cells …; experiment: cell-based or functional assay; remark: listed apart in the source

B1: ADC-1 (NEC49-9-A) (antibody, V domains shown)
VH: EVQLLESGGGLVQPGGSLRLSCAASGFTFSSYAMSWVRQAPGKGLEWVSAIYSGGSTYYADSVKGRFTISRDNSKNTLYLQMNSLRAEDTAVYYCTRHGGDSGSWSYYYYGMDVWGQGTTVTVSS
VL: not shown
modifications: compound 9-A (exatecan analog linker-drug) coupled to cysteine sulfhydryls after TCEP reduction; average loading n=4.90 for the whole antibody; positions not given
For B1, the “IC50(nM), killing of MDA-MB-468 (++) cells, CTG, 6 days” value [1] was 87.5 nM and the “IC50(nM), killing of T47D (+++) cells, CTG, 6 days” value [1] was 111 nM.

B2: fully human antibody molecule NEC49 (antibody, V domains shown)
VH: B1 VH
VL: not shown
B2 was tested, and the “IC50 (nM), DT3C antibody endocytosis assay on Nectin4-CHOK1 cells” value [2] was 0.43 nM.

B3: ADC-2 (EV201-9-A) (antibody, human IgG1, kappa, V domains shown)
VH: EVQLVESGGGLVQPGGSLRLSCAASGFTFSSYNMNWVRQAPGKGLEWVSYISSSSSTIYYADSVKGRFTISRDNAKNSLSLQMNSLRDEDTAVYYCARAYYYGMDVWGQGTTVTVSS
VL: DIQMTQSPSSVSASVGDRVTITCRASQGISGWLAWYQQKPGKAPKFLIYAASTLQSGVPSRFSGSGSGTDFTLTISSLQPEDFATYYCQQANSFPPTFGGGTKVEIKR
modifications: compound 9-A (exatecan analog linker-drug) coupled to cysteine sulfhydryls after TCEP reduction; average loading n=3.90 for the whole antibody; positions not given
In the case of B3, the “IC50(nM), killing of MDA-MB-468 (++) cells, CTG, 6 days” value [1] is reported as 152 nM and the “IC50(nM), killing of T47D (+++) cells, CTG, 6 days” value [1] is reported as 193 nM.

B4: positive control antibody EV201 (antibody, human IgG1, kappa, V domains shown)
VH: B3 VH
VL: B3 VL
B4 was tested, and the “IC50 (nM), DT3C antibody endocytosis assay on Nectin4-CHOK1 cells” value [2] was 0.5 nM.
